The source of these data is article PMC5951591, “Transcriptional repression by ApiAP2 factors is central to chronic toxoplasmosis”.

The target of data set [1] is T1, GST-AP2IV-4 (AP2 domain) (Toxoplasma gondii, UniProt S8FCP8 782-854). Kind of data set: EMSA; 50 ng protein, 20 fmol probe; EMSA: 20 fmol probe, 50 ng protein, 6% PAGE, LightShift Chemiluminescent EMSA kit; buffer, salt, pH and temperature not stated. The settings on record: protein: recombinant; tags: GST (N-terminal, pGEX4T3); label: 5'-biotin; blunt.
Data set [2] deals with T1, GST-AP2IV-4 (AP2 domain). Kind of data set: competition; 300x excess unlabeled against N1; EMSA: 20 fmol probe, 50 ng protein, 6% PAGE, LightShift Chemiluminescent EMSA kit; buffer, salt, pH and temperature not stated. The settings on record: protein: recombinant; tags: GST (N-terminal, pGEX4T3); label: none; blunt. For orientation: A gel shift assay detects complexes by their altered migration in electrophoresis.

The target in data set [3] is T1, GST-AP2IV-4 (AP2 domain). The experiment in a line: competition; 300x excess unlabeled against N1; did not compete; EMSA: 20 fmol probe, 50 ng protein, 6% PAGE, LightShift Chemiluminescent EMSA kit; buffer, salt, pH and temperature not stated. As to conditions: protein: recombinant; tags: GST (N-terminal, pGEX4T3); label: none; blunt.

B1: PBM motif validation probe (WT, 59 bp) (dsDNA)
DNA 1: TTTGTAATATACGCTCCACCGCGTGCACCCCCCTCGACATGCCCCCGTATTGCTGATCG
DNA 2: CGATCAGCAATACGGGGGCATGTCGAGGGGGGTGCACGCGGTGGAGCGTATATTACAAA
Take B1: the binding result with GST-AP2IV-4 (AP2 domain) [1] is recorded as “binds”.

B2: PBM motif validation, unlabeled poly(dC) competitor (dsDNA)
DNA 1: TTTGTAATATACGCTCCACCGCGTGCACCCCCCTCGACATGCCCCCGTATTGCTGATCG
DNA 2: CGATCAGCAATACGGGGGCATGTCGAGGGGGGTGCACGCGGTGGAGCGTATATTACAAA
Regarding B2, in the data set with GST-AP2IV-4 (AP2 domain) [2], the binding result is listed as “binds”.

B3: PBM scrambled cold competitor (60 bp) (dsDNA)
DNA 1: TACCCTGCCTCTTGTAGTAGTAACGTAAAAGAGGTAACGTGGTCAAATGCGATCAGAGAT
DNA 2: ATCTCTGATCGCATTTGACCACGTTACCTCTTTTACGTTACTACTACAAGAGGCAGGGTA
Consider B3, for which the binding result in the data set with GST-AP2IV-4 (AP2 domain) [3] is “no binding”.
